Test results as given in the nanobody polyreactivity screen of Harvey et al. (2022).

Experiment: yeast display, Sf9 membrane polyspecificity reagent, FACS + sequencing; frameworks hold sequencing errors
In short: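 Using colony PCR, genes from sorted yeast display clones were amplified, then sequenced on MiSeq at 2 × 250 and filtered by CDR length. The clones had been stained with 10% biotinylated, detergent-solubilized Sf9 membrane reagent for 1 hour at 4 °C and sorted by FACS into low and high (top ~1%) gates on anti-HA and streptavidin fluorescence. Polyreactivity labels come from the gate of origin.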

Sequence	polyreactivity (PSR sort gate)
QVQLVESGGGLVQAGGSLRLSCAASGFTFFYYAMGWYRQAPGKERELVASISWSGGSTYYADSVKGRFTISRDNAKNTVYLQMNSLKPEDTAVYYCAADVPFGGDYWGQGTQVTVSS	low polyreactivity
QVQLVESGGGLVQAGGSLRLSCAASGFTFGANAMGWYRQAPGKERELVAAITKRGGNTYYADSVKGRFTISRDNAKNTVYLQMNSLKPEDTAVYYCARDYTHGYDYWGQGTQVTVSS	high polyreactivity
QVQLVESGGGLVQAGGSLRLSCAASGFTFGANDMGWYRQAPGKERELVATISSSGGTTYYADSVKGRFTISRDNAKNTVYLQMNSLKPEDTAVYYCAAKGLFTGRVSRYADDHCGQGTQVTVSS	low polyreactivity
QVQLVESGGGLVQAGGSLRLSCAASGFTFGANVMGWYRQAPGKERQLVAGITWSGDSTYYADSVKGRFTISRDNAKNTVYLQMNSLKPEDTAVYYCAADVYDGEYILDYDYWGQGTQVTVSS	low polyreactivity
QVQLVESGGGLVQAGGSLRLSCAASGFTFGAYAMGWYRQAPGKERELVAAITWSGSSTYYADSVKGRFTISRDNAKNTVYLQMNSLKPEDTAVYYCNVQDKGYVSYYGGDSWGQGTQVTVSS	high polyreactivity
QVQLVESGGGLVQAGGSLRLSCAASGFTFGAYAMGWYRQAPGKERELVASISWSGGSTYYADSVKGRFTISRDNAKNTVYLQLNSLKPEDTAVYYCNKDFVYPDDDGLFDYWGQGTQVTVSS	low polyreactivity
QVQLVESGGGLVQAGGSLRLSCAASGFTFGDYAMGWYRQAPGIERELVAAIRSGGSTNYADSVKGRFTISRDNAKNTVYLQMNSLNPEDTAVYYCAAEWPHGQGAWSFFCRDSWGQGTQVTVSS	low polyreactivity
QVQLVESGGGLVQAGGSLRLSCAASGFTFGFYAMGWSRQATGKERELVARISYSGGSTYYADSVKGRFTISRDNAKNTVYLQMNSLKPEDTAVYYCNRGYRRLQEDYWGQGTQVTVSS	high polyreactivity
QVQLVESGGGLVQAGGSLRLSCAASGFTFGFYAMGWYRQAPGKERELVAAITSGGGTTYYADSVKGRFTISRDNAKNTVYLQMNSLKPEYTAVYYCNADPDVPFFSWLTGRGTYDYWGQGTQVTVSS	low polyreactivity
QVQLVESGGGLVQAGGSLRLSCAASGFTFGGNDMGWYRQAPGKERELVAAISWSGGSTYYADSVKGRFTISRDNAKNTVYLLMNSLKPEDTAVYYCAADYYYGKVHFDYWGQGTQVTVSS	low polyreactivity
QVQLVESGGGLVQAGGSLRLSCAASGFTFGGNVMGWYRQAPGKESELVAAITYSGGSTNYADSVKGRFTISRDNAKNTVYLQMNSLKPEDTAVYYCAAGYSYVYWSESAYVYWGQGTQVSVSS	low polyreactivity
QVQLVESGGGLVQAGGSLRLSCAASGFTFGGYAMGWYRQAPGKERELVAAISGRGGRTYYADSVKGRFTISRDNAKNTVYLQMNSLKPEDTAVYYCAAPTNHWTRLSGDYWGQGTQVTVSS	high polyreactivity
QVQLVESGGGLVQAGGSLRLSCAASGFTFGGYAMGWYRQAPGNERELVAAISKSGGRTYYADSVKGRFTISRDNAKNTVYLQMNSLKPEDTAVYYCAASTIWHYDSWGQGTQVTVSS	high polyreactivity
QVQLVESGGGLVQAGGSLRLSCAASGFTFGKYCMGWYRQAPGKERELVAAISASGGITYYADSVKGRFTISRDNAKNTVYLQMNSLKPEDTAVYYCAARRYEPKAVYYWGQGTQVTVSS	high polyreactivity
QVQLVESGGGLVQAGGSLRLSCAASGFTFGKYGMGWYRQAPGKERELVAAISASGGITYYADSVKGRFTISRDNAKNTVYLQMNSLKPEDTAVYYCAVRRRYGAFISYDYWGQGTQVTVSS	high polyreactivity
QVQLVESGGGLVQAGGSLRLSCAASGFTFGKYTMGWYRQAPGKERELVAAISRSGGSTYYADSVKGRFTISRDIAKNTVYFQMNSLKPEDTAVYYCAVDYTYDMDYWGQGTHVTVSS	high polyreactivity
QVQLVESGGGLVQAGGSLRLSCAASGFTFGNNAMGWYRQAPGKERELVAGISRTGGRTYYSDSVKGRFTISRDNAKKTVYLKMNSLKPEDTAVYYCNAVSTLYTGYDYWGQGTQVTVSS	high polyreactivity
QVQLVESGGGLVQAGGSLRLSCAASGFTFGPYAMGWYRQAPGKERELVAAISQSGGRTSYADSVKGRFTISRDNAKNTVYLQMNSLKPEDTSVYYCAKRAYGYRSIYRMDYWGQGTQVTVSS	high polyreactivity
QVQLVESGGGLVQAGGSLRLSCAASGFTFGQYAMGWYRQAPGKERELVAAISWSGGSTYYADSVKGRFTISRDNAKNTVYLQMNSLKPEDTAVYYCGEDLGDYWGQGTQVTVSS	high polyreactivity
QVQLVESGGGLVQAGGSLRLSCAASGFTFGRNAMGWYRPAPGKEMELDATISKSGGSTYYEDSVKGRFTISRDNAKNTVYLQMYSLKPEDSAVYYCAARSRRLPGDYWGQATQVTVSS	low polyreactivity
QVQLVESGGGLVQAGGSLRLSCAASGFTFGRNAMGWYRQAPGKEREFVAAISKSGTSTYYADSVKGRFTISRDNAKNTVYLQMNSLKPEDTAVYYCARTIYAKRWDFDYWGQGTQVTVSS	low polyreactivity
QVQLVESGGGLVQAGGSLRLSCAASGFTFGRNAMGWYRQAPGKERELVARITTGGSTNYADSVKGRFTISRDHAKNTVDLQMNRLKPEDTAVYDCAATYRSLALFWTYGYWGQGTQVTVSS	low polyreactivity

Sequence	polyreactivity (PSR sort gate)
QVQLVESGGGLVQAGGSLRLSCAASGFTFGRYAMGWYIQAPGKERELVAAINWSGTSTYYADSVKGRFTISRDNSKNTVYLQLNILKPEDTAVYYCAVRESGYHTTLYYWGQGTQVTVSS	high polyreactivity
QVQLVESGGGLVQAGGSLRLSCAASGFTFGRYAMGWYRQAPGKERELVAGITWSGGSTSYADSVKGRFTISRDNAKNTVYLQMNSLKPEDTAVYYCATRARYTRVHGRRYAYDYWGQGTQVTVSS	high polyreactivity
QVQLVESGGGLVQAGGSLRLSCAASGFTFGSNAMGWYRQAPGKERELVAAISWSGGRTYYADSVKGRFTISRDNAKNTVYLQMNSLKPEDTAVYYCNKQYVKPWYRGYYYWGQGTQVNVSS	high polyreactivity
QVQLVESGGGLVQAGGSLRLSCAASGFTFGSYAMGWYRQAPGKEREFVAAISLGGARTYYADSVKGRFTISRDNAKNTVYLQMNSLKPEYTAVYDCAATVRGVGYRYYYWGQGTQVTVSS	high polyreactivity
QVQLVESGGGLVQAGGSLRLSCAASGFTFGSYAMGWYRQAPGKERELVAAISSRGGSTYYADSVKGRFTISRDNAKNTVYLQMNSLKPEDTAVYYCNAGYGYIKQYPDYQSKYDYWGQGTQVTVSS	low polyreactivity
QVQLVESGGGLVQAGGSLRLSCAASGFTFGSYVMGWYRQAPGKERELVADISIRGGSTYYADSVKGRFTISRDNSKNTVYLQMNSLKPEDTAVYYCAASYFPFNSGRKVGYWGQGTQVTVSS	low polyreactivity
QVQLVESGGGLVQAGGSLRLSCAASGFTFGTYTMGWYRQAPGKERELVAAIRSSGGRTYYADSVKGRFTISRDNAKNTVYLQMNSLKPEDTAVYYCAAVLFGYPRTFGTWYDRYYYWGQGTQVTVSS	high polyreactivity
QVQLVESGGGLVQAGGSLRLSCAASGFTFGTYVMGWYRQAPGKERELVARITYGGGRTYYADSVKGRFTISRDNAKNTVYLQMNSLKPEDTAVYYCNARVTYSRYFKGYNYWGQGTQVTVSS	high polyreactivity
QVQLVESGGGLVQAGGSLRLSCAASGFTFGVNAMGWYRQAPGKERELVAAISSSGGRTYYADSVKGRFTISRDNAKNTVYLQMNSLKQEDTAVYYCAARYVYTRGGPLKRDYWGQGTQVTVSS	high polyreactivity
QVQLVESGGGLVQAGGSLRLSCAASGFTFGVNAMGWYRQAPGKERELVAVITSGGNTYYADSVKWRFTISRDNAKNTVYLQMNSLKPEDTAVYYCAAYGRASWERDYWGQGTQVTVSS	low polyreactivity
QVQLVESGGGLVQAGGSLRLSCAASGFTFGVYAMGWYRQAPGKERELVAAISRSSGRTYYADSVKGRFTISRDNAKNTVYLQMNSLKPVDTAVYYCAADLRYYGYYTRFRYYEMDYWGQGTQVTVSS	high polyreactivity
QVQLVESGGGLVQAGGSLRLSCAASGFTFGVYAMGWYRQAPGKERELVAAISTTVGSTYYADSVKGRFTISRDNAKNTVYLQMNSLKPEDTAVYDCAAEYTGYINYYIYEYWGQGTQVTVSS	low polyreactivity
QVQLVESGGGLVQAGGSLRLSCAASGFTFGVYAMGWYRQAPGKERELVAAITSGGGRTYADSVKGRFTISRDNAKNTVYLQMNSLKPEDSAVYYCAAQQGISNGTGVSATNPMDYWGQGTQVTVSS	low polyreactivity
QVQLVESGGGLVQAGGSLRLSCAASGFTFGVYAMGWYRQAPGKERELVATISSSGSTNYADSVKGRFTISRDNAKNTVYLQMNSLKPEDSAVYYCAVYYLYRRRQYYYWGQGTKVTVSS	low polyreactivity
QVQLVESGGGLVQAGGSLRLSCAASGFTFGVYARGWYRQAPGKERELVAAISRSSGRTYYADSVKWRFTISRDNAKNTVYLQMNSLKPEDTAVYYCAADLRYYGYYTRFRYYEMDYWGQGTQVTVSS	high polyreactivity
QVQLVESGGGLVQAGGSLRLSCAASGFTFGWNAMGWYRQAPGKERELVAAITSGGITNYADSVKGRFTISRDNAMNTVYLQMNSLKPEDTAVYYCNARPTSRRSWYYWKGYDYWGQGTQVTVSS	high polyreactivity
QVQLVESGGGLVQAGGSLRLSCAASGFTFGYYAMGWYRQAPGKERELVAAINWSGGRTYYADSVKGRFTISRDNAKNTVYLQMNSLKPEDTAVYYCAASSRTKLYYWGQGTQVTVSS	high polyreactivity
QVQLVESGGGLVQAGGSLRLSCAASGFTFGYYAMGWYRQAPGKERELVAAISKSGGSTYYADSVKGRFTISRDNAKNTVYLQMNSLKPEDCAVYYCAAIASIRGYYYWGQGTQVNVSS	high polyreactivity
QVQLVESGGGLVQAGGSLRLSCAASGFTFGYYAMGWYRQAPGKERELVAAITYSGGSTYYADSVKGRFTISRDNAKNTVYLQMNSLNPEDTAVYYCNAYARRYYYGRWYGEFDYWGQGTQVTLSS	low polyreactivity
QVQLVESGGGLVQAGGSLRLSCAASGFTFGYYAMGWYRQAPGKERELVASISWRGGSTYYADSVKGRFTISRDNAKNTVYLQMNSLKPEDTAVYYCATKYTGPYYRTMNYWGQGTQVTVSS	high polyreactivity
QVQLVESGGGLVQAGGSLRLSCAASGFTFGYYAMGWYRQAPGKERELVASMTVRGGSTYYADSVKGRFTISRDNAKNTVYLQINSLKPEDTAVYYCAAKRYPTWYPSQRSRYDSWGQGTQVTVSS	high polyreactivity
